Measured values published in the Human Domainome abundance scans (Beltran et al. 2025).
± gives the uncertainty stated by the source.

B1: Protein C-ets-1, residues 55 to 135; numbered along this chain, P14921 (parent)
chain: GFTKEQQRLGIPKDPRQWTETHVRDWVMWAVNEFSLKGVDFQKFCMNGAALCALGKDCFLELAPDFVGDILWEHLEILQKE

Variants of: B1
Assay: abundance fitness (aPCA) (normalised: wild type 0, dead -1); higher = more abundant; growth selection in yeast, the domain comes from the species named
Conditions: Homo sapiens

In order of rising abundance fitness:
1. W72P  -1.15 ± 0.23
2. G48M  -1.07 ± 0.23
3. P15Y  -1.07 ± 0.38
4. W18H  -1.05 ± 0.27
5. G48L  -1.05 ± 0.086
6. L51G  -1.03 ± 0.063
7. R24P  -1.03 ± 0.13
8. A63P  -1.01 ± 0.13
9. L36E  -1 ± 0.2
10. V27Y  -0.992 ± 0.19
11. K56D  -0.979 ± 0.22
12. W18N  -0.965 ± 0.21
13. W18L  -0.954 ± 0.077
14. L51Y  -0.94 ± 0.21
15. L75A  -0.921 ± 0.12
16. L75H  -0.914 ± 0.25
17. W26M  -0.898 ± 0.062
18. L51F  -0.894 ± 0.12
19. W18V  -0.891 ± 0.077
20. V27D  -0.887 ± 0.11
21. P64L  -0.861 ± 0.082
22. K56G  -0.851 ± 0.076
23. P15G  -0.845 ± 0.068
24. P12Q  -0.814 ± 0.12
25. L75S  -0.796 ± 0.059
26. V39N  -0.755 ± 0.22
27. P64Y  -0.728 ± 0.2
28. M46S  -0.724 ± 0.05
29. T19I  -0.705 ± 0.13
30. I70G  -0.705 ± 0.054
31. K56I  -0.702 ± 0.11
32. L36T  -0.697 ± 0.081
33. G68K  -0.678 ± 0.099
34. W26C  -0.662 ± 0.058
35. W29K  -0.659 ± 0.064
36. R16P  -0.643 ± 0.069
37. C52K  -0.627 ± 0.052
38. P64K  -0.6 ± 0.074
39. I11G  -0.583 ± 0.043
40. L54W  -0.582 ± 0.051
41. L36K  -0.58 ± 0.19
42. P12L  -0.567 ± 0.064
43. H22G  -0.565 ± 0.043
44. W29T  -0.515 ± 0.047
45. W29G  -0.492 ± 0.038
46. L75K  -0.466 ± 0.14
47. L62G  -0.461 ± 0.034
48. H74F  -0.4 ± 0.093
49. F2S  -0.365 ± 0.048
50. I70E  -0.365 ± 0.052
51. G10W  -0.364 ± 0.048
52. T19M  -0.345 ± 0.053
53. I11S  -0.344 ± 0.039
54. A49F  -0.339 ± 0.039
55. I11A  -0.326 ± 0.033
56. F59W  -0.318 ± 0.039
57. M46C  -0.317 ± 0.076
58. D65W  -0.311 ± 0.058
59. L78A  -0.299 ± 0.057
60. L36W  -0.29 ± 0.049
61. R24F  -0.287 ± 0.088
62. K43E  -0.283 ± 0.049
63. G68V  -0.261 ± 0.026
64. L9E  -0.261 ± 0.055
65. F2A  -0.24 ± 0.057
66. F2M  -0.238 ± 0.097
67. A50I  -0.236 ± 0.078
68. M46V  -0.234 ± 0.028
69. E61P  -0.234 ± 0.036
70. F2K  -0.232 ± 0.14
71. Q42P  -0.214 ± 0.04
72. G68T  -0.204 ± 0.052
73. V27A  -0.2 ± 0.031
74. K43D  -0.2 ± 0.068
75. A30G  -0.197 ± 0.033
76. T21W  -0.196 ± 0.057
77. L9G  -0.195 ± 0.028
78. A53H  -0.188 ± 0.075
79. H22M  -0.18 ± 0.034
80. L9Q  -0.165 ± 0.064
81. T19H  -0.153 ± 0.096
82. M28Y  -0.153 ± 0.087
83. G10C  -0.15 ± 0.044
84. K37M  -0.146 ± 0.044
85. E76T  -0.14 ± 0.065
86. V67D  -0.138 ± 0.096
87. R8M  -0.138 ± 0.059
88. H74C  -0.137 ± 0.054
89. A49P  -0.137 ± 0.028
90. E33F  -0.134 ± 0.074
91. L71N  -0.128 ± 0.38
92. G38S  -0.123 ± 0.032
93. Q7F  -0.121 ± 0.084
94. L60E  -0.113 ± 0.061
95. Q6C  -0.113 ± 0.053
96. R24C  -0.111 ± 0.068
97. L51M  -0.11 ± 0.05
98. E5I  -0.105 ± 0.098
99. L78V  -0.097 ± 0.029
100. D57V  -0.097 ± 0.03
101. G1A  -0.091 ± 0.076
102. L9C  -0.088 ± 0.089
103. C45L  -0.087 ± 0.027
104. L60F  -0.087 ± 0.066
105. E73G  -0.08 ± 0.036
106. L54I  -0.078 ± 0.064
107. I11W  -0.078 ± 0.062
108. T3C  -0.075 ± 0.068
109. S35A  -0.069 ± 0.03
110. C52V  -0.066 ± 0.027
111. T3H  -0.066 ± 0.094
112. K13L  -0.065 ± 0.043
113. D25M  -0.061 ± 0.034
114. E20P  -0.059 ± 0.035
115. A49H  -0.058 ± 0.048
116. G55H  -0.055 ± 0.066
117. V31I  -0.053 ± 0.07
118. L60H  -0.052 ± 0.069
119. H74N  -0.043 ± 0.062
120. E76Q  -0.043 ± 0.062
121. I77Y  -0.043 ± 0.073
122. N32T  -0.042 ± 0.051
123. D65Y  -0.04 ± 0.075
124. R24Q  -0.039 ± 0.038
125. G1S  -0.039 ± 0.065
126. D25T  -0.038 ± 0.033
127. I70R  -0.036 ± 0.025
128. E20T  -0.036 ± 0.04
129. I77D  -0.033 ± 0.1
130. T3A  -0.032 ± 0.042
131. F66C  -0.031 ± 0.054
132. S35R  -0.029 ± 0.029
133. R16M  -0.029 ± 0.051
134. G10K  -0.028 ± 0.075
135. C58L  -0.026 ± 0.033
136. K37D  -0.022 ± 0.052
137. T21K  -0.022 ± 0.073
138. K13I  -0.022 ± 0.088
139. C45M  -0.019 ± 0.05
140. V67G  -0.018 ± 0.038
141. K37V  -0.017 ± 0.026
142. S35K  -0.012 ± 0.049
143. E61S  -0.011 ± 0.038
144. D65K  -0.01 ± 0.065
145. R16E  -0.01 ± 0.06
146. D65I  -0.008 ± 0.11
147. C58K  -0.007 ± 0.062
148. M28C  -0.006 ± 0.054
149. R16Q  -0.006 ± 0.067
150. K56R  -0.004 ± 0.034
151. F66E  -0.002 ± 0.069
152. N32A  -0.001 ± 0.032
153. D65S  0.006 ± 0.039
154. Q42G  0.007 ± 0.035
155. I77T  0.01 ± 0.068
156. D25L  0.016 ± 0.022
157. Q42E  0.021 ± 0.068
158. H22N  0.023 ± 0.11
159. N32H  0.032 ± 0.072
160. L60K  0.043 ± 0.077
161. N32D  0.046 ± 0.051
162. C58E  0.05 ± 0.04
163. D25E  0.06 ± 0.039
164. Q7K  0.074 ± 0.068
165. T21D  0.081 ± 0.065
166. A49K  0.085 ± 0.05
167. C45N  0.116 ± 0.11
